# Results taken from PMC4112278.
# Assays:
# Assay in all cases: SEC
# [1] = biological target: HIV-1_(ITM1_4) gp140 Env trimer (HIV-1 (isolate ITM1_4, clade A))
# [2] = biological target: HIV-1_(NIBSC40-9) gp140 Env trimer (HIV-1 (isolate NIBSC 40-9, clade A))
# [3] = biological target: HIV-1_(UG37) gp140 Env trimer (HIV-1 (isolate UG37, clade A))
# [4] = biological target: HIV-1_(YU2) gp140 Env trimer (HIV-1 (isolate YU2))
# [5] = biological target: SIV_(mac239) gp140 Env trimer (SIV_(mac239))
substance,measurement,setting,value
HIV-1_(ITM1_4) gp140 Env trimer (domain or fragment),stoichiometry N,[1],3
HIV-1_(NIBSC40-9) gp140 Env trimer (domain or fragment),stoichiometry N,[2],3
HIV-1_(UG37) gp140 Env trimer (domain or fragment),stoichiometry N,[3],3
HIV-1_(YU2) gp140 Env trimer (domain or fragment),stoichiometry N,[4],3
SIV_(mac239) gp140 Env trimer (domain or fragment),stoichiometry N,[5],3
